Results from patent publication US20250320281A1.

What was measured:
[1] = biological target: WT JR-FL gp120 (HIV-1); test: ELISA, antigen-coated wells
[2] = biological target: HIV-1 Env of isolate MGRM-C-012 (HIV-1); test: cell-based or functional assay
[3] = biological target: HIV-1 92UG024 Env (pseudovirus) (HIV-1); test: cell-based or functional assay
[4] = biological target: HIV-1 Env of pseudovirus isolate MGRM-G-004 (HIV-1); test: cell-based or functional assay
[5] = biological target: HIV-1 Env of pseudovirus isolate MGRM-G-013 (HIV-1); test: cell-based or functional assay
[6] = biological target: HIV-1 Env of isolate MGRM-C-001 (HIV-1); test: cell-based or functional assay
[7] = biological target: HIV-1 Env of pseudovirus isolate MGRM-G-006 (HIV-1); test: cell-based or functional assay
[8] = biological target: HIV-1 Env of pseudovirus isolate MGRM-G-027 (HIV-1); test: cell-based or functional assay
[9] = biological target: HIV-1 Env of pseudovirus isolate MGRM-G-015 (HIV-1); test: cell-based or functional assay
[10] = biological target: HIV-1 Env of pseudovirus isolate MGRM-G-017 (HIV-1); test: cell-based or functional assay
[11] = biological target: HIV-1 MGRM-C-028 Env (pseudovirus) (HIV-1); test: cell-based or functional assay
[12] = biological target: envelope of aMLV pseudovirus (negative control); test: cell-based or functional assay
[13] = biological target: HIV-1 94UG103 Env (pseudovirus) (HIV-1); test: cell-based or functional assay
[14] = biological target: HIV-1 CMU02 Env (pseudovirus) (HIV-1); test: cell-based or functional assay
[15] = biological target: HIV-1 Env of isolate MGRM-C-005 (HIV-1); test: cell-based or functional assay
[16] = biological target: HIV-1 Env of pseudovirus isolate MGRM-G-019 (HIV-1); test: cell-based or functional assay
[17] = biological target: HIV-1 MGRM-D-018 Env (pseudovirus) (HIV-1); test: cell-based or functional assay
[18] = biological target: HIV-1 93IN905 Env (pseudovirus) (HIV-1); test: cell-based or functional assay
[19] = biological target: HIV-1 MGRM-C-027 Env (pseudovirus) (HIV-1); test: cell-based or functional assay
[20] = biological target: HIV-1 Env of isolate MGRM-C-009 (HIV-1); test: cell-based or functional assay
[21] = biological target: HIV-1 Env of isolate MGRM-C-023 (HIV-1); test: cell-based or functional assay
[22] = biological target: HIV-1 JRCSF Env (pseudovirus) (HIV-1) (UniProt P20871); test: cell-based or functional assay
[23] = biological target: HIV-1 Env of isolate MGRM-C-019 (HIV-1); test: cell-based or functional assay
[24] = biological target: HIV-1 92TH021 Env (pseudovirus) (HIV-1); test: cell-based or functional assay
[25] = biological target: HIV-1 Env of isolate MGRM-C-025 (HIV-1); test: cell-based or functional assay
[26] = biological target: HIV-1 Env of pseudovirus isolate MGRM-G-001 (HIV-1); test: cell-based or functional assay
[27] = biological target: HIV-1 Env of isolate MGRM-C-008 (HIV-1); test: cell-based or functional assay
[28] = biological target: HIV-1 NL43 Env (pseudovirus) (HIV-1); test: cell-based or functional assay
[29] = biological target: HIV-1 Env of pseudovirus isolate MGRM-G-009 (HIV-1); test: cell-based or functional assay
[30] = biological target: HIV-1 Env of pseudovirus isolate MGRM-G-016 (HIV-1); test: cell-based or functional assay
[31] = biological target: HIV-1 92UG005 Env (pseudovirus) (HIV-1); test: cell-based or functional assay
[32] = biological target: HIV-1 Env of isolate MGRM-C-002 (HIV-1); test: cell-based or functional assay
[33] = biological target: HIV-1 MGRM-A-010 Env (pseudovirus) (HIV-1); test: cell-based or functional assay
[34] = biological target: HIV-1 Env of isolate MGRM-C-014 (HIV-1); test: cell-based or functional assay
[35] = biological target: HIV-1 92RW020 Env (pseudovirus) (HIV-1); test: cell-based or functional assay
[36] = biological target: HIV-1 MGRM-C-026 Env (pseudovirus) (HIV-1); test: cell-based or functional assay
[37] = biological target: HIV-1 Env of isolate MGRM-C-007 (HIV-1); test: cell-based or functional assay
[38] = biological target: HIV-1 Env of isolate MGRM-C-022 (HIV-1); test: cell-based or functional assay
[39] = biological target: HIV-1 Env of isolate MGRM-C-006 (HIV-1); test: cell-based or functional assay
[40] = biological target: HIV-1 Env of isolate MGRM-C-004 (HIV-1); test: cell-based or functional assay
[41] = biological target: HIV-1 Env of isolate MGRM-C-024 (HIV-1); test: cell-based or functional assay
[42] = biological target: HIV-1 Env of isolate MGRM-C-017 (HIV-1); test: cell-based or functional assay
[43] = biological target: HIV-1 Env of pseudovirus isolate MGRM-G-011 (HIV-1); test: cell-based or functional assay
[44] = biological target: HIV-1 APV6 Env (pseudovirus) (HIV-1); test: cell-based or functional assay
[45] = biological target: HIV-1 Env of isolate MGRM-C-013 (HIV-1); test: cell-based or functional assay
[46] = biological target: HIV-1 Env of pseudovirus isolate MGRM-G-014 (HIV-1); test: cell-based or functional assay
[47] = biological target: HIV-1 Env of isolate MGRM-C-015 (HIV-1); test: cell-based or functional assay
[48] = biological target: HIV-1 Env of isolate MGRM-C-010 (HIV-1); test: cell-based or functional assay
[49] = biological target: HIV-1 Env of isolate MGRM-C-020 (HIV-1); test: cell-based or functional assay

4877_D15 (PGT-122) (antibody) was tested, and the EC50 [1] was 0.3 µg/mL, the neutralization IC50 [2] was 2 µg/mL and the neutralization IC50 (pseudovirus) [3] was > 10 µg/mL. It also gave an IC50 (µg/mL), pseudovirus neutralization [4] of 2.15 µg/mL, an IC50 (µg/mL), pseudovirus neutralization [5] of 3.45 µg/mL and a neutralization IC50 [6] of 19.1 µg/mL. For the same substance, the IC50 (µg/mL), pseudovirus neutralization [7] was > 50 µg/mL, the IC50 (µg/mL), pseudovirus neutralization [8] was 0.606 µg/mL and the IC50 (µg/mL), pseudovirus neutralization [9] was > 50 µg/mL. The IC50 (µg/mL), pseudovirus neutralization [10] was 0.032 µg/mL, the neutralization IC50 (pseudovirus) [11] was 2.06 µg/mL and the IC50 (µg/mL), pseudovirus neutralization [12] was > 50 µg/mL. The neutralization IC50 (pseudovirus) [13] was 1.46 µg/mL, the neutralization IC50 (pseudovirus) [14] was > 10 µg/mL and the neutralization IC50 [15] was 0.027 µg/mL. For the same substance, the IC50 (µg/mL), pseudovirus neutralization [16] was 0.016 µg/mL, the neutralization IC50 (pseudovirus) [17] was 0.0115 µg/mL and the neutralization IC50 (pseudovirus) [18] was 0.0138 µg/mL. The neutralization IC50 (pseudovirus) [19] was 0.0388 µg/mL, the neutralization IC50 [20] was > 50 µg/mL and the neutralization IC50 [21] was 0.027 µg/mL. For the same substance, the neutralization IC50 (pseudovirus) [22] was 0.0727 µg/mL, the neutralization IC50 [23] was > 50 µg/mL and the neutralization IC50 (pseudovirus) [24] was > 10 µg/mL. For the same substance, the neutralization IC50 [25] was 8.69 µg/mL, the IC50 (µg/mL), pseudovirus neutralization [26] was 0.005 µg/mL and the neutralization IC50 [27] was 0.028 µg/mL. The neutralization IC50 (pseudovirus) [28] was > 10 µg/mL, the IC50 (µg/mL), pseudovirus neutralization [29] was 0.514 µg/mL and the IC50 (µg/mL), pseudovirus neutralization [30] was > 50 µg/mL. For the same substance, the neutralization IC50 (pseudovirus) [31] was > 10 µg/mL, the neutralization IC50 [32] was 0.022 µg/mL and the neutralization IC50 (pseudovirus) [33] was 1.68 µg/mL. For the same substance, the neutralization IC50 [34] was > 50 µg/mL, the neutralization IC50 (pseudovirus) [35] was 7.2 ng/mL and the neutralization IC50 (pseudovirus) [36] was 8.9 ng/mL. It also gave a neutralization IC50 [37] of 3.35 µg/mL, a neutralization IC50 [38] of 0.012 µg/mL and a neutralization IC50 [39] of 0.018 µg/mL. For the same substance, the neutralization IC50 [40] was 0.02 µg/mL, the neutralization IC50 [41] was 0.102 µg/mL and the neutralization IC50 [42] was 0.015 µg/mL. For the same substance, the IC50 (µg/mL), pseudovirus neutralization [43] was 31.3 µg/mL, the neutralization IC50 (pseudovirus) [44] was 0.0851 µg/mL and the neutralization IC50 [45] was 32.6 µg/mL. For the same substance, the IC50 (µg/mL), pseudovirus neutralization [46] was 0.008 µg/mL, the neutralization IC50 [47] was > 50 µg/mL and the neutralization IC50 [48] was > 50 µg/mL. The neutralization IC50 [49] was 14 µg/mL.

With 5145_B14 (PGT-127) (antibody) the EC50 [1] was 0.1 µg/mL, the neutralization IC50 [2] was 1.07 µg/mL and the IC50 (µg/mL), pseudovirus neutralization [4] was > 50 µg/mL. For the same substance, the IC50 (µg/mL), pseudovirus neutralization [5] was 7.7 µg/mL, the neutralization IC50 [6] was > 50 µg/mL and the IC50 (µg/mL), pseudovirus neutralization [7] was > 50 µg/mL. The IC50 (µg/mL), pseudovirus neutralization [8] was > 50 µg/mL, the IC50 (µg/mL), pseudovirus neutralization [9] was > 50 µg/mL and the IC50 (µg/mL), pseudovirus neutralization [10] was > 50 µg/mL. The IC50 (µg/mL), pseudovirus neutralization [12] was > 50 µg/mL, the neutralization IC50 [15] was 0.57 µg/mL and the IC50 (µg/mL), pseudovirus neutralization [16] was 0.429 µg/mL. For the same substance, the neutralization IC50 [20] was > 50 µg/mL, the neutralization IC50 [21] was 1.08 µg/mL and the neutralization IC50 [23] was 0.017 µg/mL. The neutralization IC50 [25] was > 50 µg/mL, the IC50 (µg/mL), pseudovirus neutralization [26] was 0.113 µg/mL and the neutralization IC50 [27] was > 50 µg/mL. The IC50 (µg/mL), pseudovirus neutralization [29] was > 50 µg/mL, the IC50 (µg/mL), pseudovirus neutralization [30] was > 50 µg/mL and the neutralization IC50 [32] was 0.057 µg/mL. For the same substance, the neutralization IC50 [34] was > 50 µg/mL, the neutralization IC50 [37] was > 50 µg/mL and the neutralization IC50 [38] was 0.41 µg/mL. The neutralization IC50 [39] was 0.319 µg/mL, the neutralization IC50 [40] was 0.532 µg/mL and the neutralization IC50 [41] was > 50 µg/mL. For the same substance, the neutralization IC50 [42] was 3.4 µg/mL, the IC50 (µg/mL), pseudovirus neutralization [43] was > 50 µg/mL and the neutralization IC50 [45] was > 50 µg/mL. For the same substance, the IC50 (µg/mL), pseudovirus neutralization [46] was 0.009 µg/mL, the neutralization IC50 [47] was > 50 µg/mL and the neutralization IC50 [48] was > 50 µg/mL. For the same substance, the neutralization IC50 [49] was > 50 µg/mL.
